Assay results published in patent US20180362652A1 (Biogen, published 2018).
Each block holds one binder with its values, some of them ahead of it.

How the values were obtained:
[1] = target: T1, cynomolgus monkey BDCA2 (full-length, cell surface, E73 SNP form) (cynomolgus monkey, UniProt Q8WTT0 1-213 (human entry)); test: direct binding FACS, conditioned medium on CHO cells co-expressing cynomolgus BDCA2 and FcεRIγ
T1 construct: also called cyno BDCA2; surface cynomolgus monkey BDCA2
T1 chain: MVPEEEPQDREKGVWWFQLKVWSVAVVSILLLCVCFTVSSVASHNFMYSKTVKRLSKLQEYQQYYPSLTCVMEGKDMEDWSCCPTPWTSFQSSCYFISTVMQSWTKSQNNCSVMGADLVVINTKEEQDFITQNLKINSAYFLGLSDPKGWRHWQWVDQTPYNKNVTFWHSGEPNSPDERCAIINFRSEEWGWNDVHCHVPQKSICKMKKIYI
Experimental: (§1) Conditioned medium was assayed by direct binding FACS on stably transfected DG44 CHO cells co-expressing full-length BDCA2 and FcεRIγ cDNAs (human or cynomolgus monkey), (relevant expression vectors are human BDCA2/FcεRIγ: pEAG2456, cyno BDCA2/FcεRIγ: pEAG2668).

[2] = target: T2, human BDCA2 (full-length, cell surface) (human, UniProt Q8WTT0 1-213); test: direct binding FACS, conditioned medium on CHO cells co-expressing human BDCA2 and FcεRIγ; column C (midpoint) of the printed 4-P fit, X in ng/ml; A 6.16, B 0.839, D 115, R^2 0.998
T2 construct: also called huBDCA2; surface human BDCA2
T2 sequence: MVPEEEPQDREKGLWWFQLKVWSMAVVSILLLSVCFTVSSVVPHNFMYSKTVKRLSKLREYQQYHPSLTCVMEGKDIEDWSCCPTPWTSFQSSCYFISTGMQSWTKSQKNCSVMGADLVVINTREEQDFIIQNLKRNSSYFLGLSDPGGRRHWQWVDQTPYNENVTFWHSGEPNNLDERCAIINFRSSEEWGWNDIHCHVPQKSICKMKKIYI
Experimental: as §1

[3] = target: T1, cynomolgus monkey BDCA2 (full-length, …); test: direct binding FACS, conditioned medium on CHO cells co-expressing cynomolgus BDCA2 and FcεRIγ; column C (midpoint) of the printed 4-P fit, X in ng/ml; A 4.01, B 1.09, D 68.9, R^2 0.998
Experimental: as §1

[4] = target: T2, human BDCA2 (full-length, cell surface); test: direct binding FACS, conditioned medium on CHO cells co-expressing human BDCA2 and FcεRIγ; column C (midpoint) of the printed 4-P fit, X in ng/ml; A 5.67, B 0.857, D 96.6, R^2 0.999
Experimental: as §1

[5] = target: T1, cynomolgus monkey BDCA2 (full-length, …); test: direct binding FACS, conditioned medium on CHO cells co-expressing cynomolgus BDCA2 and FcεRIγ; column C (midpoint) of the printed 4-P fit, X in ng/ml; A 2.43, B 0.789, D 70.7, R^2 0.999
Experimental: as §1

[6] = target: T2, human BDCA2 (full-length, cell surface); test: direct binding FACS on surface BDCA2, conditioned medium
[7] = target: T3, monomeric huBDCA2 ectodomain (human, UniProt Q8WTT0 45-213); test: Octet, mAb on anti-human Fc tips, monomeric huBDCA2 in solution
T3 construct: Prepared by proteolytic cleavage of the purified muIgG2a Fc-huBDCA2 fusion protein (pEAG2423); also called human BDCA2 ectodomain; human BDCA2 ECD
T3 sequence: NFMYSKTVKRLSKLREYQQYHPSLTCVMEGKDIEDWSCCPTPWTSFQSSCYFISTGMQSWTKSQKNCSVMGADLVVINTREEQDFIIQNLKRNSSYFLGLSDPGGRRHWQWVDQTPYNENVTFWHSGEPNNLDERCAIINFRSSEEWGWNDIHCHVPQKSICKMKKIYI
Experimental: Site-directed mutagenesis was performed using Agilent's QuikChange II mutagenesis kit following the manufacturer's recommended protocol. […] Mutated plasmids were identified by screening for the introduced restriction site changes. The full-length light chain cDNA sequences in the resultant plasmids were confirmed by DNA sequencing. […] Conditioned medium was harvested at 2 days post-transfection. […] Antibodies from conditioned medium from transiently transfected cells were bound to anti-human Fc tips, then monomeric huBDCA2 was flowed over the Octet tips, to examine binding and dissociation.

- binding result [1]: no binding (tested: about 7000 ng/ml)
B1: hu24F4 H2/L1 (antibody, V domains shown)
VH: EVQLVESGGGLVKPGGSLRLSCAASGFTFSTYTMSWVRQAPGKGLEWVSTISPGDSSTIYYADSVKGRFTISRDNAKNSLYLQMNSLRAEDTAVYYCARDIYYNYGAWFAYWGQGTLVTVSS
VL: DIQLTQSPSSLSASVGDRVTITCKASQSVDYDGDSYMNWYQQKPGKAPKLLIYAASTLESGVPSRFSGSGSGTDFTLTISSLQPEDFATYYCQQSNEDPRTFGQGTKVEIK
notes: Humanized variant, human IgG1/kappa, conditioned medium of 293E cells; also called H2 series of hu24F4

- EC50 [2]: 0.309 µg/mL
- EC50 [3]: 0.228 µg/mL
B3: hu24F4 H5/L1 (antibody, V domains shown)
VH: DVQLVQSGGGLVKPGGSLRLSCAASGFTFSTYTMSWVRQAPGKGLEWVATISPGDSFGYYYPDSVQGRFTISRDNAKNSLYLQMNRLRAEDTAVYYCTRDIYYNYGAWFAYWGRGTLVTVSS
VL: DIQLTQSPSSLSASVGDRVTITCKASQSVDYDGDSYMNWYQQKPGKAPKLLIYAASTLESGVPSRFSGSGSGTDFTLTISSLQPEDFATYYCQQSNEDPRTFGQGTKVEIK
notes: Humanized variant, human IgG1/kappa, conditioned medium of 293E cells; also called H5 series of hu24F4

- binding result [1]: no binding (tested: about 5000 ng/ml)
B4: hu24F4 H1/L1 (antibody, V domains shown)
VH: EVQLVESGGGLVKPGGSLRLSCAASGFTFSTYTMSWVRQAPGKGLEWVSTISPGDSFGYYPDSVKGRFTISRDNAKNSLYLQMNSLRAEDTAVYYCARDIYYNYGAWFAYWGQGTLVTVSS
VL: DIQLTQSPSSLSASVGDRVTITCKASQSVDYDGDSYMNWYQQKPGKAPKLLIYAASTLESGVPSRFSGSGSGTDFTLTISSLQPEDFATYYCQQSNEDPRTFGQGTKVEIK
notes: Humanized variant, human IgG1/kappa, conditioned medium of 293E cells; also called H1 series of hu24F4

- EC50 [4]: 0.359 µg/mL
- EC50 [5]: 0.501 µg/mL
B5: hu24F4 H6/L1 (antibody, V domains shown)
VH: DVQLVESGGGLVKPGGSLRLSCAASGFTFSTYTMSWVRQAPGKGLEWVATISGGNNYGYSYPDSVKGRFTISRDNAKNSLYLQMNSLRAEDTAVYYCTRDIYYNYGAWFAYWGQGTLVTVSS
VL: DIQLTQSPSSLSASVGDRVTITCKASQSVDYDGDSYMNWYQQKPGKAPKLLIYAASTLESGVPSRFSGSGSGTDFTLTISSLQPEDFATYYCQQSNEDPRTFGQGTKVEIK
notes: Humanized variant, human IgG1/kappa, conditioned medium of 293E cells; also called H6 series of hu24F4

Second part, the binder before the results:

B2: hu24F4 H0/L1 (antibody, V domains shown)
VH: EVQLVESGGGLVKPGGSLRLSCAASGFTFSTYTMSWVRQAPGKGLEWVSAISGSGGSTYYADSVKGRFTISRDNAKNSLYLQMNSLRAEDTAVYYCARDIYYNYGAWFAYWGQGTLVTVSS
VL: DIQLTQSPSSLSASVGDRVTITCKASQSVDYDGDSYMNWYQQKPGKAPKLLIYAASTLESGVPSRFSGSGSGTDFTLTISSLQPEDFATYYCQQSNEDPRTFGQGTKVEIK
notes: Humanized variant, human IgG1/kappa, conditioned medium of 293E cells; also called H0 series of hu24F4
- binding result [1]: no binding (tested: about 6000 ng/ml)

B6: ch24F4 C95S variant (antibody, human IgG1, kappa, V domains shown)
VH: DVKLVESGGGLVKPGGSLKLSCAASGFTFSTYTMSWVRQTPEKRLEWVATISPGDSFGYYYPDSVQGRFTISRDNAKNTLFLQMSSLKSEDTAMYYCTRDIYYNYGAWFAYWGQGTLVTVSA
VL: DIVLTQSPASLAVSLGQRATISCKASQSVDYDGDSYMNWYQQKPGQPPKLLIYAASTLESGVPARFSGSGSGTDFTLNIHPVEEEDAATYYCQQSNEDPRTFGGGTKLEIKR
notes: pYL672 with pEAG2678; conditioned medium of 293E cells
- binding result [6]: binds
- binding result [7]: binds

B7: ch24F4 C95T variant (antibody, human IgG1, kappa, V domains shown)
VH: DVKLVESGGGLVKPGGSLKLSCAASGFTFSTYTMSWVRQTPEKRLEWVATISPGDSFGYYYPDSVQGRFTISRDNAKNTLFLQMSSLKSEDTAMYYCTRDIYYNYGAWFAYWGQGTLVTVSA
VL: DIVLTQSPASLAVSLGQRATISCKASQSVDYDGDSYMNWYQQKPGQPPKLLIYAASTLESGVPARFSGSGSGTDFTLNIHPVEEEDAATYYCQQTNEDPRTFGGGTKLEIKR
notes: pYL672 with pEAG2679; conditioned medium of 293E cells
- binding result [6]: binds
- binding result [7]: binds
